Data from the nanobody polyreactivity screen of Harvey et al. (2022).

Experiment: yeast display, Sf9 membrane polyspecificity reagent, FACS + sequencing; frameworks hold sequencing errors
Method in brief: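 Polyreactivity labels are assigned by the sorting gate from which each nanobody was recovered. The gates were low and high (top ~1%), set on anti-HA fluorescence for expression and streptavidin fluorescence for reagent binding. Before sorting, galactose-induced (36–48 hours) yeast display cells were stained for 1 hour at 4 °C with 10% biotinylated, detergent-solubilized Sf9 membrane reagent.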

Sequence | polyreactivity (PSR sort gate)
QVQLVESGGGLVQAGGSLRLSCAASGSILDGNAMGWYRQAPGKERELVAAITRSGGRTYYADSVKGRFTISRDNAKNTVYLQMNSLKPEDTAVYYCNVDVPGVRFEYWGQGTQVTVSS | low polyreactivity
QVQLVESGGGLVQAGGSLRLSCAASGSILDIYAMGWSRQAPGKERELVAGISTSGGSTYYADSVKGRFTISRDNAKNTVYLQMNSLKPEDTAVYYCAKDYGYQGHTRTLYWAYLEYDYWGQGTQVTVSS | low polyreactivity
QVQLVESGGGLVQAGGSLRLSCAASGSILDIYAMGWSRQAPGKERELVAGMSTTGGSTYYADSVKGRFTISRDNAKNTVYLQMNSLKPEDTAVYYCAKDYGYQGHTRTLYWAYLEYDYWGQGTQVTVSS | low polyreactivity
QVQLVESGGGLVQAGGSLRLSCAASGSILDIYAMGWYRQAPGKERELVASISWGGGSTYYADSVKGRFTISRDNAKNTVYLQMNSLKQEDTAVYYCNAVYDLYHYWKFYYWGQGTQVTVSS | low polyreactivity
QVQLVESGGGLVQAGGSLRLSCAASGSILDRNAMGWYRQAPGKERELVAAISRSRGSTYYADSVKGRFTISRDNAKNTVYLQMNSLKPEDTAVYYCNAYYPFYTLIYGGPVRYYNFDYWGQGPQVTVSS | high polyreactivity
QVQLVESGGGLVQAGGSLRLSCAASGSILDSNAMGWYRQAPGQERELVAAISRSGVSTHYADSVKGRFSISRDNAKNTVYLQMNSLKPEDTAVYYCARTGQSLYSRYYYWGQGTQVTVSS | low polyreactivity
QVQLVESGGGLVQAGGSLRLSCAASGSILEIYAMGWYRQAPGKESEFVASISWDVSSTYYADSVKGRFTISRDNAKNTVYLQMNSLKPEDTAVYYCATSLVWGLYDWYYDLSAAFDYWGQGTQVTVSS | low polyreactivity
QVQLVESGGGLVQAGGSLRLSCAASGSILEPYAMGWYRQAPGKERELVAAISSSGGSTRYADSVKGRFTISRDNAKNTVYLQMNSLKPEDTAVYYCAARFRAKFNYWGQGTQVTVSS | low polyreactivity
QVQLVESGGGLVQAGGSLRLSCAASGSILEVYAMGWYRQAPGKERELVAAISDGDSTYYADSVKGRFTISRDNAKNTVYLQMNSLKPEDTAVYYCAAEFVGTLWWYDDWGQGTQVTVSS | low polyreactivity
QVQLVESGGGLVQAGGSLRLSCAASGSILFANAMGWYRQAPGKERELVAAIRGSGSTYYADSVKGRFTISRDNAKNTVYLQMNSLKPEDTAVYYCAKRHLISIPDYGRHEYDYWGQGTQVTVSS | low polyreactivity
QVQLVESGGGLVQAGGSLRLSCAASGSILFTNAMGWYRQAPGKERELVAAISSGGSTYFADSVKGRFTISRDNAKNTVYLQMNSLKQEDTAVYYCAADQLNVGREYVEYDYWGQGTQVTVSS | low polyreactivity
QVQLVESGGGLVQAGGSLRLSCAASGSILFTNAMGWYRQAPGKERELVAAISSGGSTYYADSVKGRFTISRDNAKNTVYLQMNSLKPEDTAVYYCAASDHYRWYVHRWEDPFYYWGQGTQVTVSS | low polyreactivity
QVQLVESGGGLVQAGGSLRLSCAASGSILGGNAMGWSRQAPGKERELVAAITFSGGGTYYADSVKGRFTISRDNAKNTVYLQMNSLKPEDTAVYYCAADKDGYTYEFDYWGQGTQVTVSS | low polyreactivity
QVQLVESGGGLVQAGGSLRLSCAASGSILGHYAMGWYRQAPGKERELVAAISWSGGSTYYADSVKGRFTISRDNAKNTVYLQMNSLKPEDTAVYYCNAAAILYTSAGSLYWYDYWGQGTQVTVSS | low polyreactivity
QVQLVESGGGLVQAGGSLRLSCAASGSILGIKVMGWYRQAPGKERELVAAISRRGGSTYYADSVKGRFTISRDNAKNTVYLQMNSLKPEDTAVYYCAATRTARTMGYWGQGTQVTVSS | high polyreactivity
QVQLVESGGGLVQAGGSLRLSCAASGSILGRNAMGWYRQAPGKERELVAGITWSTVSTYYADSVKGRFTISRDNAKNTVYLQMNSLKPEDTAVYYCAAAPNLWAYRRWYYTYYYWGQGTQVTVSS | high polyreactivity
QVQLVESGGGLVQAGGSLRLSCAASGSILGTYAMGWYRQAPGKERELVAAISSSGRTSYADSVKGRFTISRDNAKNTVYLQMNSLKPEDTAVYYCNASNYIVLINDPDAAPWLYDYWGQGTQVTVSS | low polyreactivity
